Experiments:
[1] = molecular target: T1, recombinant human DLL4 extracellular domain, C-terminally His-tagged (R&D Systems) (human, UniProt Q9NR61 25-522, biotinylated in the competition assays (sites not given)); assay: periplasmic extract; hDLL4 ELISA
T1 construct: also called rhDLL4; hDLL4; not shown: C-terminal His tag

[2] = molecular target: T2, recombinant mouse DLL4 (mouse, UniProt Q9JI71 27-532); assay: ProteOn off-rate screen, periplasmic extract, mDLL4 on chip
T2 construct: extracellular domain; also called rmDLL4; mDLL4; not shown: C-terminal His tag
Experimental: (§1) In a first cycle, amino acid substitutions are introduced randomly in both framework (FW) and complementary determining regions (CDR) using the error-prone PCR method. […] After a polish step, PCR products are inserted via unique restriction sites into a vector designed to facilitate phage display of the VHH library. […] No selections on murine DLL4 are included as (conservation of) cross-reactivity is assessed at the screening level. Individual mutants are produced as recombinant protein using an expression vector derived from pUC119, which contains the LacZ promoter, a resistance gene for ampicillin, a multiple cloning site and an ompA leader sequence (pAX50). E. coli TG1 cells are transformed with the expression vector library and plated on agar plates (LB+Amp+2% glucose). Single colonies are picked from the agar plates and grown in 1 mL 96-deep-well plates. VHH expression is induced by adding IPTG (1 mM). Periplasmic extracts (in a volume of ˜80 uL) are prepared according to standard methods and screened for binding to recombinant human and mouse DII4 in a ProteOn (BioRad, Hercules, Calif., USA) off-rate assay. […] Periplasmic extract of affinity matured clones is diluted 1/10 and injected across the “analyte channels” A1-A6. An average off-rate is calculated of the wild type clones present in the plate and served as a reference to calculate off-rate improvements.

[3] = molecular target: T3, recombinant human DLL4 (human, UniProt Q9NR61 25-522); assay: ProteOn off-rate screen, periplasmic extract, hDLL4 on chip
T3 construct: R&D Systems C-terminally His-tagged extracellular domain; also called rhDLL4; hDLL4; not shown: C-terminal His tag
Experimental: as §1

T2 sequence (Q9JI71 27-532): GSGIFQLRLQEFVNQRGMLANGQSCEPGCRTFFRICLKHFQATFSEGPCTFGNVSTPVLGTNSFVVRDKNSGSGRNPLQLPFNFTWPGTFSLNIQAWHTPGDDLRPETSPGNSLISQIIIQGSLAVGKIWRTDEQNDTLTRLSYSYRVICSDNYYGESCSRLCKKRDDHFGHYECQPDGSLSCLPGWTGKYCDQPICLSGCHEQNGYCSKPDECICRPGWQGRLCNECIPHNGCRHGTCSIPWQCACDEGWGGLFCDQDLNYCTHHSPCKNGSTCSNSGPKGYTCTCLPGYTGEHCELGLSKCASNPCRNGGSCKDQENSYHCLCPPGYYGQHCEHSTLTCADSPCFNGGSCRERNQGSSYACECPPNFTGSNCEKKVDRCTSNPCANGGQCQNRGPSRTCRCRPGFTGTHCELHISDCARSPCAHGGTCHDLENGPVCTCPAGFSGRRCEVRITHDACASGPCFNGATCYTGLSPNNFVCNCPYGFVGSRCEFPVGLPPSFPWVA
T1 sequence (Q9NR61 25-522): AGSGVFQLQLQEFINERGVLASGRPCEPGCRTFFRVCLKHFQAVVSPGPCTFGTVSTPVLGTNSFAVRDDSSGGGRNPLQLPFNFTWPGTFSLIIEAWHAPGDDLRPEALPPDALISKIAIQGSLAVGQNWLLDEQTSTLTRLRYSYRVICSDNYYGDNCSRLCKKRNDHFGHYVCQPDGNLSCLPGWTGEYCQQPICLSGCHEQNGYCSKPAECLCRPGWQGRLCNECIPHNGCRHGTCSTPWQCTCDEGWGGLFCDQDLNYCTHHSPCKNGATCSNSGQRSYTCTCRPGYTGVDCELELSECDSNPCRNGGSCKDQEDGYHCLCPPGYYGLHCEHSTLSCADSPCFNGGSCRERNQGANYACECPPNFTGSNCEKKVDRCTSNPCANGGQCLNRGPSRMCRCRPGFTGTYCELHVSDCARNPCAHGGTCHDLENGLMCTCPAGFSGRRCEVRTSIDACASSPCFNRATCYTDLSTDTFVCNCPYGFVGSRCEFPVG
T3 sequence (Q9NR61 25-522): as above

B1: DLLBII8C11 (VHH)
VHH: EVQLVESGGGLVQAGGSLRLSCAASGFTFDDYAIGWFRQAPGKEREGVSCISSHDRTTYYADSVKGRFTISSDNAKNTVYLQMNSLKPEDTAVYYCAADPLVCGYNDPRLADYWGQGTQVTVSS
notes: also called DLLBII08C11; not shown: C-terminal c-myc and His6 tags
% inhibition [1]: 57%

B2: DLLBII8A09 (VHH)
VHH: EVQLVESGGGLVQPGGSLRLSCAASGFTLDYYNIGWFRQAPGKEREWVSCINSSDGSTYYADSVKGRFTISRDNAKNTVYLQMNSLKPEDTAVYYCAAPFAYYSNLCGVNGYDYWGQGTQVTVSS
notes: also called DLLBII08A09; not shown: C-terminal c-myc and His6 tags
% inhibition [1]: 96%

B3: DLLBII7B05 (VHH)
VHH: EVQLVESGGGLVQAGGSLRLSCAASGFALDYYAVGWFRQAPGKEREGVSCISSRGGSTFYADSVKGRFTTSRNNAKNTVYLQMNSLKPEDTAVYYCAAHPLQNCCGGSAYASPEAVYEYWGQGTQVTVSS
notes: also called DLLBII7B5; DLLBII07B05; not shown: C-terminal c-myc and His6 tags
% inhibition [1]: 84%

B4: DLLBII5B11 (VHH)
VHH: EVQLVESGGGLVQPGGSLRLSCAISGFTLDLHVIGWLRQAPGKEREWVSCISSSDGSTYYADSVKGRFTISRDNAKNTVYLQMNSLKPEDTAVYYCAAPWDSWYCGIGNDYDYWGQGTQVTVSS
notes: also called DLLBII05B11; not shown: C-terminal c-myc and His6 tags
% inhibition [1]: 98%

B5: DLLBII6B11 (VHH)
VHH: EVQLVESEGGLVQAGGSLRLSCAASGSTFSSYAMGWYRQAPGKQRELVAVISNGGITNYPNSVKGRFTISRDNAKNTVYLQMNSLKPEDTAVYYCFYSGSYYYPTDVHEYDYWGQGTQVTVSS
notes: also called DLLBII06B11; not shown: C-terminal c-myc and His6 tags
% inhibition [1]: 98%

B6: DLLBII129A03 (VHH)
VHH: EVQLVESGGGLVQAGGSLRLSCAASGRTFSSYAMAWFRQAPGKEREYVAAIRWSGGTAYYADSVQGRFTISRDNAKNTVYLQMNSLRPEDTAVYYCANRAPDTRLRPYLYDYWGQGTQVTVSS
notes: not shown: C-terminal c-myc tag and (His)6 tag
fold (off-rate improvement over DLLBII101G08) [2]: 18 fold
fold (off-rate improvement over DLLBII101G08) [3]: 19 fold

B7: DLLBII129G09 (VHH)
VHH: EVQLVESGGGLVQAGGSLRLSCAASGRTFSSYAMAWYRQAPGKEREYVAAIRWSGETAYYADSVQGRFTISRDNAKNTVYLQMNSLKPEDTAVYYCANRAPDTRLEPYLYDHWGQGTQVTVSS
fold (off-rate improvement over DLLBII101G08) [2]: 20 fold
fold (off-rate improvement over DLLBII101G08) [3]: 26 fold

B8: DLLBII129H05 (VHH)
VHH: EVQLVESGGGLVQAGGSLRLSCAASGRTFSSYAMAWYRLAPGKEREYVAAIRWSGGTAYYADSVQGRFTISRDNAKNTVYLQMNSLKPEDTAVYYCANRAPDTRLGPYLYDYWGQGTQVTVSS
fold (off-rate improvement over DLLBII101G08) [2]: 19 fold
fold (off-rate improvement over DLLBII101G08) [3]: 24 fold

B9: DLLBII129E03 (VHH)
VHH: EVQLVESGGGLVQAGGSLRLSCAASGRTFSSYAMAWFRQAPGKDREYVAAIRWSGGTAYYADSVQGRFTISRDNAKNTVYLQMNSLKPEDTAVYYCANRAPDTRLAPYLYDYWGQGTQVTVSS
fold (off-rate improvement over DLLBII101G08) [2]: 18 fold
fold (off-rate improvement over DLLBII101G08) [3]: 20 fold

B10: DLLBII129B02 (VHH)
VHH: EVQLVESGGGLVQAGGSLSLSCAASGRTFSSYAMAWYRQAPGKEREYVAAIRWSGGTAYYADSVQGRFTISRDNAKNTVYLQMNSLKPEDTAVYYCANRAPDTRLEPYEYDHWGQGTQVTVSS
fold (off-rate improvement over DLLBII101G08) [2]: 26 fold
fold (off-rate improvement over DLLBII101G08) [3]: 30 fold

B11: DLLBII130B04 (VHH)
VHH: EVQLVESGGGLVQAGGSLRLSCAASGRTFSSYAMAWFRQAPGKEREYVAAIRWSGGTAYYADSVQGRFTISRDNAKNTVYLQMNSLKPEDTAVYYCANRAPDTRLRPYLYDHWGQGTQVTVSS
fold (off-rate improvement over DLLBII101G08) [2]: 17 fold
fold (off-rate improvement over DLLBII101G08) [3]: 22 fold

B12: DLLBII129D01 (VHH)
VHH: EVQLVESGGGLVQAGGSLRLSCAASGRTFSSYAMAWFRQAPGKEREYVAAIRWSGGTAYYADSVQSRFTITRDNAKNTVYLQMNSLKPEDTAVYYCANRAPDTRLEPYLYDHWGQGTQVTVSS
fold (off-rate improvement over DLLBII101G08) [2]: 26 fold
fold (off-rate improvement over DLLBII101G08) [3]: 26 fold

B13: DLLBII130D06 (VHH)
VHH: EVQLVESGGGLVQAGGSLRLSCSASGRTFSSYAMAWYRQAPGKEREYVAAIRWSGETAYYADSVQGRFTISRDNAKNTVYLQMNSLKPEDTAVYYCANRAPDTRLEPYLYDHWGQGTQVTVSS
fold (off-rate improvement over DLLBII101G08) [2]: 16 fold
fold (off-rate improvement over DLLBII101G08) [3]: 26 fold

B14: DLLBII130E03 (VHH)
VHH: EVQLVESGGGLVQAGGSLRLSCAASGRTFSSYAMAWYRQAPGKEREYVAAIRWSGGTAYYADSVQGRFTISRDNAKNTVYLQMNSLKPEDTAVYYCANRAPDTRLEPYEYDHWGQGTQVTVSS
fold (off-rate improvement over DLLBII101G08) [2]: 18 fold
fold (off-rate improvement over DLLBII101G08) [3]: 24 fold

B15: DLLBII129H04 (VHH)
VHH: EVQLVESRGGLVQAGGSLRLSCAASGRTFSSYAMAWFRQAPGKEREYVAAIRWSGGTAYYADSVQGRFTISRDNAKNTVYLQMNSLKPEDTAVYYCANRAPDTRLEPYLYDHWGQGTQVTVSS
fold (off-rate improvement over DLLBII101G08) [2]: 27 fold
fold (off-rate improvement over DLLBII101G08) [3]: 33 fold

B16: DLLBII129E07 (VHH)
VHH: EVQLVESGGGLVQAGGSLRLSCSASGRTFSSYAMAWYRQAPGKEREYVAAIRWSGGTAYYPDSVQGRFTISRDNAKNTVYLQMNSLKPEDTAVYYCANRAPDTRLAPYEYDHWGQGTQVTVSS
fold (off-rate improvement over DLLBII101G08) [2]: 24 fold
fold (off-rate improvement over DLLBII101G08) [3]: 21 fold

B17: DLLBII129H02 (VHH)
VHH: EVQLVESGGGLVQAGGSLRLSCAASGRTFSSYAMAWYRQAPGKEREYVAAIRWSGGTAYYADSVQGRFTISRDNAKNTVYLQMNSLKPEDTAVYYCANRAPDTRLRPYEYDYWGQGTQVTVSS
fold (off-rate improvement over DLLBII101G08) [2]: 19 fold
fold (off-rate improvement over DLLBII101G08) [3]: 23 fold

B18: DLLBII129H07 (VHH)
VHH: EVQLVESGGGLVQAGGSLRLSCAASGRTFSSYAMAWYRQAPGKEREYVAAIRWSGGTAYYADSVQGRFTISRDNAKNTVYLQMNSLKPEDTAVYYCANRAPDTRLEPYEYDYWGQGTQVTVSS
notes: as for B6
fold (off-rate improvement over DLLBII101G08) [2]: 27 fold
fold (off-rate improvement over DLLBII101G08) [3]: 30 fold

B19: DLLBII130B02 (VHH)
VHH: EVQLVESGGGLVQAGGSLRLSCAASGRTFSSYAMAWFRQAPGKEREYVAAIRWSGGTAYYADSVQGRFTISRDNAKNTVYLQMYSLKPEDTAVYYCANRAPDTRLAPYLYDHWGQGTQVTVSS
fold (off-rate improvement over DLLBII101G08) [2]: 17 fold
fold (off-rate improvement over DLLBII101G08) [3]: 23 fold

B20: DLLBII129G10 (VHH)
VHH: EVQLVESGGGLVQAGGSLRLSCAASGRTFSSYAMAWYRQAPGKEREYVAAIRWSGGTAYYADSVQSRFTISRDNAKNTVYLQMNSLKPEDTAVYYCANRAPDTRLEPYEYDHWGQGTQVTVSS
fold (off-rate improvement over DLLBII101G08) [2]: 26 fold
fold (off-rate improvement over DLLBII101G08) [3]: 31 fold

B21: DLLBII130F06 (VHH)
VHH: EVQLVESGGGLVQAGGSLRLSCAASGRTFSSYAMAWYRQAPGKEREYVAAIRWSGGTAYYADSVQGRFTISRDNAKNTVYLQMNSLKPEDTAVYYCANRAPDTRLAPYEYDYWGQGTQVTVSS
notes: as for B6
fold (off-rate improvement over DLLBII101G08) [2]: 19 fold
fold (off-rate improvement over DLLBII101G08) [3]: 27 fold

B22: DLLBII130B03 (VHH)
VHH: EVQLVESGGGLVQAGGSLRLSCAASGRTFSSYAMAWYRQAPGKEREYVAAIRWSGGTAYYADSVQGRFTISRDNAKNTVYLQMNSLKPEDTAVYYCANRAPDTRLAPYLYDYWGQGTQVTVSS
notes: as for B6
fold (off-rate improvement over DLLBII101G08) [2]: 20 fold
fold (off-rate improvement over DLLBII101G08) [3]: 27 fold

B23: DLLBII130A05 (VHH)
VHH: EVQLVESGGGLVQAGGSLRLSCAASGRTFSSYAMAWYRQAPGKEREYVAAIRWSGGTAYYADSVQGRFTISRDNAKNTVYLQMNSLKPEDTAVYYCANRAPDTRLGPYLYDHWGQGTQVTVSS
fold (off-rate improvement over DLLBII101G08) [2]: 17 fold
fold (off-rate improvement over DLLBII101G08) [3]: 24 fold
